Article PMC11497264, “SARS‐CoV‐2 Spike Protein‐Derived Cyclic Peptides as Modulators of Spike Interaction with GRP78” (Chembiochem, 2024)
Bridge positions count the residues as written; N and C are the ends.

B1: Pep42, 13-mer cyclopeptide (peptide)
peptide: H-CTVALPGGYVRVC-NH2
modifications: disulfide 1-13
SMILES: CC(C)C[C@@H]1NC(=O)[C@H](C)NC(=O)[C@H](C(C)C)NC(=O)[C@H]([C@@H](C)O)NC(=O)[C@@H](N)CSSC[C@@H](C(N)=O)NC(=O)[C@H](C(C)C)NC(=O)[C@H](CCCNC(=N)N)NC(=O)[C@H](C(C)C)NC(=O)[C@H](Cc2ccc(O)cc2)NC(=O)CNC(=O)CNC(=O)[C@@H]2CCCN2C1=O
notes: source: synthetic peptide (Fmoc SPPS, disulphide cyclisation with DMSO, HPLC purified)
B2: human glucose-regulated protein GRP78 (natural protein)
chain: not shown
notes: also called heat shock protein A5; HSPA5; source: Escherichia coli, recombinant; bought: Abcam

How the values were obtained:
[1] = target: B2; assay: SPR; conditions: both partners purified
[2] = target: T1, S1 subunit (aa 14-685) of the spike protein of SARS-CoV-2 (SARS-CoV-2, UniProt P0DTC2 14-685); assay: SPR; conditions: both partners purified
T1 construct: also called soluble S1; wild-type S1 protein

| Binder | IC50 [1] [nM] | Kd [1] [nM] | KD in the presence of 12.5 uM LCP O [2] [nM] | KD in the presence of 12.5 uM LCP W [2] [nM] |
| --- | --- | --- | --- | --- |
| B1 | 5900 | 3400 | – | – |
| B2 | – | – | 751 | 137 |
